The data set concerns the molecule itself. The experiment in a line: gel filtration (self-association / dimerization check). On the technique in general: Size exclusion chromatography separates by hydrodynamic size, large species first.

B1: mOrange2 (other)
chain: MVSKGEENNMAIIKEFMRFKVRMEGSVNGHEFEIEGEGEGRPYEGFQTAKLKVTKGGPLPFAWDILSPHFTYGSKAYVKHPADIPDYFKLSFPEGFKWERVMNYEDGGVVTVTQDSSLQDGEFIYKVKLRGTNFPSDGPVMQKKTMGWEASSERMYPEDGALKGKIKMRLKLKDGGHYTSEVKTTYKAKKPVQLPGAYIVDIKLDITSHNEDYTIVEQYERAEGRHSTGGMDELYK
notes: Engineered monomeric orange fluorescent protein derived from mOrange (DsRed lineage); also called mOrange Q64H/F99Y/E160K/G196D; not shown: N-terminal 6xHis tag and linker encoded by the pBAD expression vector
In the case of B1, the binding result is “no binding”.

B2: TagRFP-T (other)
chain: MVSKGEELIKENMHMKLYMEGTVNNHHFKCTSEGEGKPYEGTQTMRIKVVEGGPLPFAFDILATSFMYGSRTFINHTQGIPDFFKQSFPEGFTWERVTTYEDGGVLTATQDTSLQDGCLIYNVKIRGVNFPSNGPVMQKKTLGWEANTEMLYPADGGLEGRTDMALKLVGGGHLICNFKTTYRSKKPAKNLKMPGVYYVDHRLERIKEADKETYVEQHEVAVARYCDLPSKLGHKLNGMDELYK
notes: Engineered fluorescent protein, the S158T variant of TagRFP (eqFP578 lineage); also called TagRFP S158T; not shown: N-terminal 6xHis tag and linker encoded by the pBAD expression vector
On to B2, for which the binding result is reported as “no binding”.

The values are drawn from patent US20090203035A1 (University of California, published 2009).
